In US20250250357A1 (NANJING ZAIMING PHARMACEUTICAL, published 2025):
Blank lines part the entries; values can stand above or below the binder they belong to.

Key:
[1] = target: T1, human MSLN-R3-his protein (human, UniProt Q13421 487-598); assay: ELISA on coated MSLN-R3; antibody 0.0001 nM
T1 construct: Region 3 of human mesothelin, made in HEK293E cells, His-tagged; also called human MSLN-R3 protein; hMSLN-R3-his; not shown: His tag
T1 sequence (Q13421 495-606): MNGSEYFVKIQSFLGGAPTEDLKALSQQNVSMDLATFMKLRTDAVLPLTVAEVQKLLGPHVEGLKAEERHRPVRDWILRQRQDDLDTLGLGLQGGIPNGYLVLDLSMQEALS

[2] = target: T2, human MSLN-R2-his protein (human, UniProt Q13421 391-486); assay: ELISA on coated MSLN-R2; antibody 0.1 nM
T2 construct: Region 2 of human mesothelin, made in HEK293E cells, His-tagged; also called human MSLN-R2 protein; hMSLN-R2-his; not shown: His tag
T2 sequence (Q13421 other isoform, or with tags, fused parts or gaps): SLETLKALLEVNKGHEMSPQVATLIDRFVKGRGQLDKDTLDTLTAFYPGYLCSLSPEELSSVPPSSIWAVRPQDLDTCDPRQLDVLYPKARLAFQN

[3] = target: T1, human MSLN-R3-his protein; assay: ELISA on coated MSLN-R3; antibody 100 nM
Description: (§1) The plate was sealed with a plastic film and incubated at 4° C. overnight. The next day, the plate was washed twice with PBST, and a blocking buffer [PBS+2% (w/w) BSA] was added for blocking at room temperature for 2 h. The blocking buffer was discarded, and a chimeric antibody or negative control antibody serially diluted from 100 nM was added at 50 μL/well. After incubation at 37° C. for 2 h, the plate was washed 3 times with PBST. […] After incubation at 37° C. for 2 h, the plate was washed 5 times with PBST. A TMB substrate was added at 50 μL/well for incubation at room temperature for 5-10 min, and then a stop solution (1.0 N HCl) was added at 50 μL/well.

[4] = target: T3, human MSLN-R1-his protein (human, UniProt Q13421 296-390); assay: ELISA on coated MSLN-R1; antibody 0.001 nM
T3 construct: Region 1 of human mesothelin, made in HEK293E cells, His-tagged; also called human MSLN-R1 protein; hMSLN-R1-his; not shown: His tag
T3 chain: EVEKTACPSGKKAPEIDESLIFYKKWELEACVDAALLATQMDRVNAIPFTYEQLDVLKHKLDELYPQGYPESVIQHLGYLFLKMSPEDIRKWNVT

[5] = target: T2, human MSLN-R2-his protein; assay: ELISA on coated MSLN-R2; antibody 0.0001 nM
[6] = target: T1, human MSLN-R3-his protein; assay: ELISA on coated MSLN-R3; antibody 0.001 nM
[7] = target: T2, human MSLN-R2-his protein; assay: ELISA on coated MSLN-R2; antibody 0.01 nM
Description: as §1

[8] = target: T2, human MSLN-R2-his protein; assay: ELISA on coated MSLN-R2; antibody 10 nM
[9] = target: T1, human MSLN-R3-his protein; assay: ELISA on coated MSLN-R3; antibody 1 nM
Description: as §1

[10] = target: T2, human MSLN-R2-his protein; assay: ELISA on coated MSLN-R2; no antibody (blank)
[11] = target: T1, human MSLN-R3-his protein; assay: ELISA on coated MSLN-R3; no antibody (blank)
[12] = target: T2, human MSLN-R2-his protein; assay: ELISA on coated MSLN-R2; antibody 100 nM
[13] = target: T2, human MSLN-R2-his protein; assay: ELISA on coated MSLN-R2; antibody 0.001 nM
Description: as §1

[14] = target: T2, human MSLN-R2-his protein; assay: ELISA on coated MSLN-R2; antibody 1 nM
[15] = target: T3, human MSLN-R1-his protein; assay: ELISA on coated MSLN-R1; antibody 0.01 nM
[16] = target: T3, human MSLN-R1-his protein; assay: ELISA on coated MSLN-R1; antibody 100 nM
Description: as §1

[17] = target: T3, human MSLN-R1-his protein; assay: ELISA on coated MSLN-R1; antibody 1 nM
Description: as §1

[18] = target: T3, human MSLN-R1-his protein; assay: ELISA on coated MSLN-R1; antibody 10 nM
[19] = target: T3, human MSLN-R1-his protein; assay: ELISA on coated MSLN-R1; antibody 0.1 nM
Description: as §1

[20] = target: T1, human MSLN-R3-his protein; assay: ELISA on coated MSLN-R3; antibody 0.1 nM
Description: as §1

[21] = target: T3, human MSLN-R1-his protein; assay: ELISA on coated MSLN-R1; no antibody (blank)
Description: as §1

[22] = target: T1, human MSLN-R3-his protein; assay: ELISA on coated MSLN-R3; antibody 10 nM
Description: as §1

[23] = target: T1, human MSLN-R3-his protein; assay: ELISA on coated MSLN-R3; antibody 0.01 nM
Description: as §1

[24] = target: T3, human MSLN-R1-his protein; assay: ELISA on coated MSLN-R1; antibody 0.0001 nM
[25] = target: T4, human MSLN-R3-his protein (human, UniProt Q13421 487-598); assay: ELISA on coated antigen, antibody 0.002 nM
T4 construct: it is put last here; also called human MSLN-R3 protein; hMSLN-R3-his; not shown: His tag
T4 sequence (Q13421 495-606): as the sequence (Q13421 495-606) above

[26] = target: T5, human MSLN-R2-his protein (human, UniProt Q13421 391-486); assay: ELISA on coated antigen, antibody 0.002 nM
T5 construct: it is put last here; also called human MSLN-R2 protein; hMSLN-R2-his; not shown: His tag
T5 sequence (Q13421 other isoform, or with tags, fused parts or gaps): as the sequence (Q13421 other isoform, or with tags, fused parts or gaps) above

[27] = target: T4, human MSLN-R3-his protein; assay: ELISA on coated antigen, antibody 0.02 nM
[28] = target: T5, human MSLN-R2-his protein; assay: ELISA on coated antigen, antibody 20 nM
Description: as §1

[29] = target: T4, human MSLN-R3-his protein; assay: ELISA on coated antigen, no antibody (blank, column 'none')
Description: as §1

[30] = target: T4, human MSLN-R3-his protein; assay: ELISA on coated antigen, antibody 0.2 nM
Description: as §1

[31] = target: T5, human MSLN-R2-his protein; assay: ELISA on coated antigen, antibody 0.0002 nM
Description: as §1

[32] = target: T4, human MSLN-R3-his protein; assay: ELISA on coated antigen, antibody 200 nM
Description: as §1

[33] = target: T5, human MSLN-R2-his protein; assay: ELISA on coated antigen, no antibody (blank, column 'none')
Description: as §1

[34] = target: T5, human MSLN-R2-his protein; assay: ELISA on coated antigen, antibody 0.2 nM
Description: as §1

[35] = target: T4, human MSLN-R3-his protein; assay: ELISA on coated antigen, antibody 0.0002 nM
Description: as §1

[36] = target: T5, human MSLN-R2-his protein; assay: ELISA on coated antigen, antibody 0.02 nM
Description: as §1

[37] = target: T4, human MSLN-R3-his protein; assay: ELISA on coated antigen, antibody 20 nM
Description: as §1

[38] = target: T4, human MSLN-R3-his protein; assay: ELISA on coated antigen, antibody 2 nM
[39] = target: T5, human MSLN-R2-his protein; assay: ELISA on coated antigen, antibody 2 nM
Description: as §1

[40] = target: T5, human MSLN-R2-his protein; assay: ELISA on coated antigen, antibody 200 nM
Description: as §1

OD450 [1]: 0.04 OD450 | OD450 [2]: 0.04 OD450 | OD450 [3]: 0.06 OD450 | OD450 [4]: 0.11 OD450 | OD450 [5]: 0.04 OD450 | OD450 [6]: 0.04 OD450 | OD450 [7]: 0.04 OD450 | OD450 [8]: 0.04 OD450 | OD450 [9]: 0.04 OD450 | OD450 [10]: 0.04 OD450 | OD450 [11]: 0.03 OD450 | OD450 [12]: 0.05 OD450 | OD450 [13]: 0.04 OD450 | OD450 [14]: 0.04 OD450 | OD450 [15]: 0.43 OD450 | OD450 [16]: 2.64 OD450 | OD450 [17]: 2.45 OD450 | OD450 [18]: 2.66 OD450 | OD450 [19]: 1.6 OD450 | OD450 [20]: 0.03 OD450 | OD450 [21]: 0.04 OD450 | OD450 [22]: 0.05 OD450 | OD450 [23]: 0.04 OD450 | OD450 [24]: 0.05 OD450
B1: S009-F8-33.12 (antibody, human IgG1, kappa, V domains shown)
VH: EVQLQQSGAELVKPGASVKLSCTASAFNIKDYYMHWVKQRTEQGLEWIGRIDPEDGETKYAPKFQGKATITADTSSNTAYLQLSSLTSEDTAVYYCASGSGTGAMDYWGQGTSVTVSS
VL: DIVMTQSQKFMSTSVGDRVSITCKASQNVRTAVGWYQQKPGQSPKALIYLASNRHTGVPDRFTGSGSGTDFTLTISNVQSEDLADYFCLQHWNSPYTFGGGTKLVIKR

OD450 [25]: 0.56 OD | OD450 [26]: 0.05 OD | OD450 [27]: 1.55 OD | OD450 [28]: 0.07 OD | OD450 [29]: 0.08 OD | OD450 [30]: 2.64 OD | OD450 [31]: 0.05 OD | OD450 [32]: 3.1 OD | OD450 [33]: 0.06 OD | OD450 [34]: 0.05 OD | OD450 [35]: 0.13 OD | OD450 [36]: 0.05 OD | OD450 [37]: 2.81 OD | OD450 [38]: 2.86 OD | OD450 [39]: 0.05 OD | OD450 [40]: 0.13 OD
B2: S009-F7.6.17 (antibody, human IgG1, kappa, V domains shown)
VH: QVQLQQSGAELARPGASVKMSCKASGYTFTTYTMHWVKQRPGQGLEWIGYISPTGDFTKYNQKFKDKATLTTDKSSNTAFMQLSSLTSEDSAVYYCARWNGTVWFAYWGQGTLVTVSA
VL: DIVMTQSQKFMSTSVGDRVTVTCKASQALGTNVAWYQQKPGQSPKVLIYSASYRYSGVPYRFAGGGSGTDFTLTITNVQSEDLAEYFCQQYNNYPLTFGAGTKLELKR
notes: Human-murine chimeric antibody, human IgG1 heavy and kappa light constant regions

OD450 [25]: 0.06 OD | OD450 [26]: 0.41 OD | OD450 [27]: 0.06 OD | OD450 [28]: 2.38 OD | OD450 [29]: 0.07 OD | OD450 [30]: 0.06 OD | OD450 [31]: 0.14 OD | OD450 [32]: 0.2 OD | OD450 [33]: 0.06 OD | OD450 [34]: 2.12 OD | OD450 [35]: 0.06 OD | OD450 [36]: 1.22 OD | OD450 [37]: 0.1 OD | OD450 [38]: 0.07 OD | OD450 [39]: 2.37 OD | OD450 [40]: 2.74 OD
B3: S009-F7.2.3 (antibody, human IgG1, kappa, V domains shown)
VH: ELQLVESGGDLVKPGGSLKLSCAASGFTFSSNGMSWLRQTPDKRLEWVATISSGGRYTYYPDSVKGRFTISRDNAKNTLYLQMSSLKSEDTAMYYCARRGIYDYFDCWGQGTTLTVSS
VL: DIQMTQSPASLSISVGETVTITCRASENIHSSLAWYQQKQGKSPQLLVYAATNLADGVPSRFSGSGSGSQYSLKINSLQSEDFGTYYCQHFWGTPWTFGGGTKLDIKR
notes: as for B2

OD450 [25]: 0.09 OD | OD450 [26]: 0.05 OD | OD450 [27]: 0.32 OD | OD450 [28]: 0.06 OD | OD450 [29]: 0.06 OD | OD450 [30]: 1.37 OD | OD450 [31]: 0.05 OD | OD450 [32]: 3.12 OD | OD450 [33]: 0.06 OD | OD450 [34]: 0.05 OD | OD450 [35]: 0.06 OD | OD450 [36]: 0.05 OD | OD450 [37]: 2.58 OD | OD450 [38]: 2.41 OD | OD450 [39]: 0.05 OD | OD450 [40]: 0.07 OD
B4: S009-F7.11.11 (antibody, human IgG1, kappa, V domains shown)
VH: EVQLQQSGPELVKPGASVKIPCKASGYTITDYNMDWVKQSRGKSLEWIGDVFPYNGDSIYNQKFEGRATLTVDKYSSTAYMELRGLTSEDTAVYFCARRKTGTGYFDVWGTGTTVTVSS
VL: QLVLTQSPAIMSASPGEKVTLTCSASSSVSSTYLSWYLQKPGSSPKLWIYSTSNLASGVPARFSGSGSGTSYSLTISSMEAEDAASYFCHQWSSYPYTFGGGTKLEIKR
notes: as for B2

OD450 [1]: 0.04 OD450 | OD450 [2]: 0.03 OD450 | OD450 [3]: 1.19 OD450 | OD450 [4]: 0.04 OD450 | OD450 [5]: 0.04 OD450 | OD450 [6]: 0.04 OD450 | OD450 [7]: 0.04 OD450 | OD450 [8]: 0.04 OD450 | OD450 [9]: 0.05 OD450 | OD450 [10]: 0.04 OD450 | OD450 [11]: 0.04 OD450 | OD450 [12]: 0.05 OD450 | OD450 [13]: 0.04 OD450 | OD450 [14]: 0.04 OD450 | OD450 [15]: 0.04 OD450 | OD450 [16]: 0.05 OD450 | OD450 [17]: 0.04 OD450 | OD450 [18]: 0.04 OD450 | OD450 [19]: 0.04 OD450 | OD450 [20]: 0.04 OD450 | OD450 [21]: 0.03 OD450 | OD450 [22]: 0.14 OD450 | OD450 [23]: 0.04 OD450 | OD450 [24]: 0.04 OD450
B5: S009-F8-36.12 (antibody, human IgG1, kappa, V domains shown)
VH: EVQLQQSGPELVKPGASVKISCKASGYTFTDYYMNWVKQSHGKSLEWIGDINPNNGGTSYNQKFKGKATLTVDKSSSTAYMELRSLTSEDSAVYYCASWGYGSSSRGYFDYWGQGTTLTVSS
VL: QIVLSQSPAILSASPGEKVTMTCRASSSVSYMHWYQQKPGSSPKPWIYATSNLASGVPARFSGSGSGTSYSLTISRVEAEDAATYYCQQWSSNPWTFGGGTKLEIKR
